The results in this text go back to patent publication US20140271629A1 (Amgen, published 2014).

Usually Kd stands for a measure of binding affinity in units of concentration.

For assay [1], the target named is Human BMP4 (R&D Systems cat#314-BP) (human) (UniProt P12644). The assay is described as follows: cell-based or functional assay.
The target in the next assay is T1, huCHRDL-1-DEVD-6xHis (human, UniProt Q9BU40 28-456).
T1 construct: also called Human CHRDL-1
T1 sequence: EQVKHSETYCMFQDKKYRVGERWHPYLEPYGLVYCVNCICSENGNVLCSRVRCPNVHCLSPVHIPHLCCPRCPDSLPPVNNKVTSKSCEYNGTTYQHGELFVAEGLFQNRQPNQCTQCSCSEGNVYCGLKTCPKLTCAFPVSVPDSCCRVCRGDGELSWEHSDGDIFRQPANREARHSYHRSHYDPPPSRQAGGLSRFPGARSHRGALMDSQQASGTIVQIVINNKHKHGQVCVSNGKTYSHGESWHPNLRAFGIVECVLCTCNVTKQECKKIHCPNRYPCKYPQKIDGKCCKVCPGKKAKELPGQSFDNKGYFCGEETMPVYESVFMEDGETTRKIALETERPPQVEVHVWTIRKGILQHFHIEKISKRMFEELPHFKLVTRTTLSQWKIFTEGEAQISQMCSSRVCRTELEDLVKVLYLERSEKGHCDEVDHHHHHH
Put plainly: KinExA, solution equilibrium, huCHRDL-1-coated beads. The protocol: Binding of the various anti-CHRDL-1 antibodies to huCHRDL-1-DEVD-6xHis was performed using KinExA technology. The huCHRDL-1 protein was coated onto Reacti-Gel™ 6X (Pierce Biotechnology, Inc., Rockford, Ill.) agarose beads at a concentration of 50 ug protein/mL of beads in 50 mM Na₂CO₃ pH 9.6 for approximately 18 hours at 4° C. The coated beads were then blocked with 1 mg/mL BSA (Sigma-Aldrich, St. Louis, Mo.) in 1 M Tris-HCl, pH 7.5 for 2 hours at 4° C. Antibodies at fixed concentrations were mixed with varying concentrations of huCHRDL-1 in PBS containing 0.1 mg/mL BSA and 0.005% polysorbate 20 (P-20, BIAcore, Inc., Piscataway, N.J.) for at least 12 hours at room temperature. Antibody concentrations were 10 pM, 30 pM, 100 pM and/or 300 pM as appropriate. […] Antibody bound to the beads was quantified using fluorescent DyLight 649-conjugated goat anti-murine IgG (H+L) antibody (Jackson ImmunoResearch, West Grove, Pa.) at 1 ug/mL in Super Block (Pierce Biotechnology, Inc., Rockford, Ill.) for the mouse antibodies, or using AlexaFluor™ 647-conjugated goat anti-human IgG (H+L) at 1 ug/mL for the humanized antibody. […] The dissociation equilibrium constant (KD) can be determined from nonlinear regression analysis of the competition curves using a multiple curve one-site homogeneous binding model provided in the KinExA Pro software (Sapidyne Instruments, Inc., Boise, Id.).

Chain of Human BMP4 (R&D Systems cat#314-BP) (human) (P12644 293-408 limits assumed): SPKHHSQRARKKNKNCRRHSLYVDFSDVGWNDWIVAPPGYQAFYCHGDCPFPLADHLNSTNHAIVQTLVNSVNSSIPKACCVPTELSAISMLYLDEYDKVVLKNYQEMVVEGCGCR

In assay [1], “Recombinant human CHRDL-1 (R&D Systems cat#1808-NR), Glu22-Cys450 with C-terminal 10xHis tag (from UniProt Q9BU40 28-456)” gave an RLU mean, BRE-luciferase reporter in MC3T3-E1-BRE-Luc cells stimulated with BMP4 (TSG present) of 62 RLU and a reduction of RLU mean, BRE-luciferase reporter in MC3T3-E1-BRE-Luc cells stimulated with BMP4 (TSG present) of 89%.

In the case of “muCHRDL-1-DEVD-6xHis (from UniProt Q920C1 23-447)”, in assay [1], the RLU mean, BRE-luciferase reporter in MC3T3-E1-BRE-Luc cells stimulated with BMP4 (TSG present) was found to be 254 RLU and the reduction of RLU mean, BRE-luciferase reporter in MC3T3-E1-BRE-Luc cells stimulated with BMP4 (TSG present) worked out at 55%.

B1: huz-LC2G2.2_LC/huz-bmHC2G2.2_eflsIgG1 (antibody, V domains shown)
VH: QVQLVQSGAEVKKPGASVKVSCKASGYTFTSYWMHWVRQAPGQGLERMGNINPSNGGTNYNEKFKSRVTMTVDKSSSTAYMELSSLRSEDTAVYYCARSKNNYVAYYFDYWGQGTLVTVSS
VL: DIQMTQSPSSLSASVGDRVTITCRASENIYYSLAWYQQKPGKAPKLLIYNANSLEDGVPSRFSGSGSGTDFTLTISSLQPEDFATYYCKQAYDVPLTFGQGTKLEIKR
notes: also called huz-2G2.2-A; Huz-2G2.2-A
B1: the Kd in the assay with huCHRDL-1-DEVD-6xHis came to 0.142 nM.
